B1: Connector enhancer of kinase suppressor of ras 2, residues 9 to 71; numbered along this chain, Q8WXI2 (parent)
chain: SKWSPSQVVDWMKGLDDCLQQYIKNFEREKISGDQLLRITHQELEDLGVSRIGHQELILEAVD

Variants of: B1
Assay: abundance fitness (aPCA) (normalised: wild type 0, dead -1); higher = more abundant; growth selection in yeast, the domain comes from the species named
Settings: Homo sapiens

Abundance fitness, by site and new letter:
C18: N -0.132; G -0.182; L -0.885; S -0.024; Q -0.124; V -0.118; R -0.314; M -0.442; D 0.006; Y -0.877; F -0.823; K -0.301; T -0.221; I -0.439; P -0.239; W -0.991
D16: A -0.408; Y -0.667; S -0.402; W -0.527; N -0.311; R -0.631; I -0.615; H -0.358; F -0.512; V -0.675; M -0.669; C -0.72; K -0.632; P -0.047; L -0.702; E -0.266; G -0.466; Q -0.293
I23: P -0.673; A 0.006; Q -0.378; G -0.344; D -0.698; M -0.34; E -0.412; N -0.475; L -0.163; V -0.008; F -0.765; W -0.313; S -0.247; C -0.014; Y -0.447; R -0.18; H -0.393; K -0.361
L36: F -0.715; G -0.845; C -0.961; T -0.88; M -0.334; V -0.713; E -0.769; P -0.928; H -0.971; A -0.958; S -0.846; Q -0.898; I -0.325; R -0.82; N -0.854; K -0.775; D -0.847
Q21: E -0.076; R -0.144; S -0.118; C -0.022; M -0.102; D -0.095; Y -0.459; W -0.933; N -0.4; G -0.032; L -0.275; F -0.539; I -0.088; V -0.072; K -0.204; P 0.038; H -0.257
L19: D -0.608; H -0.568; F -0.548; I -0.102; G -0.68; S -0.642; N -0.593; A -0.652; Q -0.604; R -0.763; C -0.244; T -0.508; V -0.112; E -0.74; P -0.602; W -0.936; Y -0.816; M -0.2
R28: K -0.063; S -0.056; W -0.638; I -0.099; E -0.1; F -0.453; A -0.052; N -0.067; D -0.043; Y -0.28; L -0.15; V -0.159; M -0.094; T -0.058; G -0.262
Y22: G -0.702; I -0.834; A -0.863; R -0.728; N -0.747; D -0.571; E -0.753; P -0.753; V -0.806; Q -0.636; H -0.542; W -0.632; K -0.578; T -0.653; S -0.742; L -0.899
L15: Y -0.636; V -0.42; W -0.266
F26: N -0.893; G -0.727; I -0.356; P -0.592; K -0.852; S -0.779; R -0.867; H -0.929; T -0.774; Y -0.908; Q -0.772; V -0.485; A -0.824; M -0.709; W -0.785
Q35: N -0.119; F -0.33; P -0.903; L -0.392; R 0.033; W -0.523; Y -0.39; D -0.158; K -0.054; G -0.485; S -0.291; C -0.328; M -0.152; E -0.172; V -0.19; A -0.088
N25: Y -0.036; E -0.168; P -0.307; C -0.066; L -0.089; F -0.078; W -0.443; G -0.139; H -0.055; S -0.05; A -0.007; I -0.088; Q -0.133; M -0.014; K -0.258; D -0.08
E29: G -0.04; F -0.148; Q -0.005; H 0.003; T -0.139; L -0.179; R -0.025; N -0.143; S -0.043; M -0.054; K 0.02; Y -0.102; W -0.215
E27: M -0.205; G -0.514; P -0.703; D -0.248; T -0.197; A -0.075; R -0.173; L -0.207; N -0.535; Y -0.316; Q -0.101; V -0.261; H -0.376; C -0.406; I -0.436; F -0.47; W -0.311; S -0.258
D34: S -0.06; F -0.281; T -0.118; K -0.056; G -0.109; I -0.213; H -0.168; W -0.142; N -0.087; L -0.128; M -0.108; Q -0.031; Y -0.12; P -0.105; R -0.075; V -0.159; E 0.055; A 0.037
D17: R -0.184; G -0.104; E -0.018; F -0.181; P -0.051; I -0.4; K -0.186; M -0.268; Q -0.091; V -0.359; A -0.137; L -0.446; N -0.075; Y -0.203; C -0.06; W -0.497
S32: A -0.077; T 0.022; L -0.706; I -0.589; V -0.475; N 0.024; E -0.341; C -0.029; W -0.322; F -0.493; G -0.074; P -0.624; R -0.142; M -0.394; H -0.361; Y -0.264
G33: L -0.423; P -0.84; S -0.668; H -0.669; Q -0.559; C -0.833; M -0.236; F -0.198; W -0.216; I -0.387; Y -0.257; A -0.745; V -0.417; D -0.906; N -0.947; E -0.855; T -0.645; R -0.631; K -0.462
Q20: C -0.325; H 0.049; W -0.133; P -0.805; M -0.17; L -0.121; S -0.148; D -0.259; A -0.177; E -0.31; N -0.117; Y -0.204; F -0.179; G -0.152; R -0.214; K -0.148; I -0.247
I31: E -0.827; F -0.573; M -0.361; P -0.744; H -0.71; D -0.931; K -0.886; N -0.732; C -0.99; L -0.26; V -0.053; A -0.914; W -0.74; R -0.873; Y -0.948; Q -0.87
K30: M -0.113; H -0.04; W -0.572; T -0.419; Y -0.391; C -0.097; D -0.225; A -0.069; E -0.105; G -0.048; Q -0.036; S -0.087; V -0.519; F -0.324; N -0.075; L -0.225

From the Human Domainome abundance scans (Beltran et al. 2025)
